Measured values as given in US20080108135A1 (University of California, published 2008).
Read-outs that look alike come from different tables or passages of the source.

What was measured:
[1] = target: ErbB2 on tumor cell lines (SKBR3, SK-OV-3, MCF7) (UniProt P04626); assay: cell-based or functional assay
[2] = target: ErbB2 on tumor cell lines (SKBR3, SK-OV-3, MCF7) (UniProt P04626); assay: 5.0 × 10^11 phage on about 1.0 × 10^5 SKBR3 cells at 37 C, surface bound phage eluted with low pH glycine, titered on E. coli TG1
[3] = target: ErbB2 on tumor cell lines (SKBR3, SK-OV-3, MCF7) (UniProt P04626)
[4] = target: T1, ErbB2 (form in the assay not stated) (UniProt P04626 23-1255); assay: method not stated
T1 construct: also called c-erbB-2

[5] = target: T1, ErbB2 (form in the assay not stated); assay: competition by flow cytometry, panel 'C1 phage binding': soluble scFv inhibits binding of C1 phage; % of maximal MFI

Molecule | Lysed cell fraction (titer of internalized phage), SKBR3 cells [1] [phage titer] | titer of cell surface bound phage, 1st glycine wash [2] [phage titer] | titer of cell surface bound phage, 2nd glycine wash [2] [phage titer] | also measured
C6.5 diabody phage | 1.7e+07 | 1.8e+07 | 2.8e+06 | cells with internalized phage, confocal microscopy, SKBR3 cells [1]: 20 % of cells
C6.5 phage (anti-ErbB2 C6.5 scFv displayed on phage) | 6.8e+07 | 1.2e+07 | 5.2e+06 | 
C6.5cys scFv conjugated to liposomes |  |  |  | Total uptake of scFv-conjugated liposomes by SKBR3 cells [1]: 3.4; share of the liposome uptake that was internalized, SKBR3 cells [1]: 70%
irrelevant anti-Botulinum phage (scFv) | 600000 |  |  | titer of cell surface bound phage, 1st glycine wash [3]: 600000 phage titer; titer of cell surface bound phage, 2nd glycine wash [3]: 100000 phage titer
F5 scFv (native purified soluble scFv) (scFv, not shown: small tags and cut ends, also called 3TF5; scFv-F5) scFv: QVQLVESGGGLVQPGGSLRLSCAASGFTFRSYAMSWVRQAPGKGLEWVSAISGRGDNTYYADSVKGRFTISRDNSKNTLYLQMNSLRAEDTAVYYCAKMTSNAFAFDYWGQGTLVTVSSGGGGSGGGGSGGGGSQSVLTQPPSVSGAPGQRVTISCTGSSSNIGAGYGVHWYQQLPGTAPKLLIYGNTNRPSGVPDRFSGFKSGTSASLAITGLQAEDEADYYCQSYDSSLSGWVFGGGTKLTVLG |  |  |  | Kd [4]: 320 nM; IC50 (read off the curve) [5]: ~200 nM
